According to US7601803 (SCIL PROTEINS, dated 2009):

Target: T1, BSA (UniProt P02769 25-607)
T1 construct: Unconjugated carrier protein used as the control antigen
Experiment: concentration-dependent ELISA, BSA coated at 20 µg/ml, detected with tetra-His antibody
Procedure: Specific binding of mutant 12A to the BSA-estradiol-17-hemisuccinate conjugate was assayed by carrying out an ELISA, with increasing concentrations of purified mutant 12A-His-Tag protein being used. Increasing amounts of gamma-II-crystalline wild-type (likewise with His-Tag) were used as control, and binding of both purified proteins to BSA was assayed. The concentration-dependant ELISA was carried out using NUNC-Tm plates. Antigen coating with the BSA-estradiol-17-hemisuccinate conjugate or with BSA was carried out at room temperature overnight. Coating was carried out with in each case 100 µl of antigen at a concentration of 20 µg/ml of PBS pH 7.6. After washing (2×PBS pH 7.6) and blocking the plates (3% Marvel/PBS at 37° C. for 2 h), in each case 1-13 µl of the protein stock solution (concentration 0.63 mg/ml) of purified Mu 12A or gamma-II-crystalline were introduced into a total 100 µl of reaction solution (PBS, 3% Marvel, x µl of protein) and incubated in the wells at 37° C. for 2 h. The secondary antibodies used were the tetra-His antibody from Qiagen in a dilution of 1:3000 and the anti-mouse POD antibody (Sigma) in a dilution of 1:2000. The antibodies were diluted with a 3% strength Marvel/PBS solution and 100 µl were added to the wells and incubated at 37° C. for in each case 1 h. […] No increase was detected using gamma-II-crystalline. […]

T1 sequence (P02769 25-607 limits assumed): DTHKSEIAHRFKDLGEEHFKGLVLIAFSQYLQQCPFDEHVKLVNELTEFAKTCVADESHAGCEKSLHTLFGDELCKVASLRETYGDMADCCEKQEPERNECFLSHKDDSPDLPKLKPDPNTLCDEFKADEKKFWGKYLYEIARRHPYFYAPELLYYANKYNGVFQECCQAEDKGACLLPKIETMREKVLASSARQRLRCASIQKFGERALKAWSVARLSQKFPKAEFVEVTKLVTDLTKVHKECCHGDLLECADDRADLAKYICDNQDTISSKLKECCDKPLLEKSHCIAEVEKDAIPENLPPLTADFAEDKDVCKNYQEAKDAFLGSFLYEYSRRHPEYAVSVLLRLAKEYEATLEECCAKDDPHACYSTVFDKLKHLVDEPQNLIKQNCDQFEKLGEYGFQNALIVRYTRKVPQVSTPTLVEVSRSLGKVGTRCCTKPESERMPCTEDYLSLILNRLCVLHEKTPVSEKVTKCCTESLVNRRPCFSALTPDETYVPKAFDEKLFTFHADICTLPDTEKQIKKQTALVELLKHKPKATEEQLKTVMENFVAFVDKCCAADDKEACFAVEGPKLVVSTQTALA

binding result: no binding
B1: bovine gamma-II-crystalline wild-type, purified His-Tag protein after expression in pET-20b (other)
chain: MGKITFYEDRGFQGHCYECSSDCPNLQPYFSRCNSIRVDSGCWMLYERPNYQGHQYFLRRGDYPDYQQWMGFNDSIRSCRLIPQHTGTFRMRIYERDDFRGQMSEITDDCPSLQDRFHLTEVHSLNVLEGSWVLYEMPSYRGRQYLLRPGEYRRYLDWGAMNAKVGSLRRVMDFYSDPNSSSVDKLAAALEHHHHHH
notes: Starting protein used as the control, likewise with His-Tag; also called WT; gamma-B-crystalline
